Results on five molecules are retold here after patent US20250313650A1 (BIOLEGEND, published 2025).

One assay has as its target T1, recombinant CHI3L2 (UniProt Q15782 27-390, limits assumed).
T1 sequence (looked up): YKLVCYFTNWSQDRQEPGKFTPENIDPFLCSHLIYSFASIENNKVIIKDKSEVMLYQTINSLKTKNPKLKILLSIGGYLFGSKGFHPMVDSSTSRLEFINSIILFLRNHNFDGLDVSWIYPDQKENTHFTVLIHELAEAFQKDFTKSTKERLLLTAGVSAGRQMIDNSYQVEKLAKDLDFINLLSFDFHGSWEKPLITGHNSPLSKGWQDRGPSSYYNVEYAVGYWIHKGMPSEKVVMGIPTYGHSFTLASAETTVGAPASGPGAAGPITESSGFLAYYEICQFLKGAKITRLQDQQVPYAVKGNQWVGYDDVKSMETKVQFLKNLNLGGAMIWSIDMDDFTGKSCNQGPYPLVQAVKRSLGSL
Put plainly: flow cytometry blocking assay on fixed/permeabilized THP-1 cells; antibody pre-incubated with recombinant protein. Here is the method: (§1) To assess for specificity for CHI3L1 and cross-reactivity with the closely related protein CHI3L2, certain anti-CHI3L1 antibody clones were assessed using CHI3L1 expressing human […] cell line THP-1. THP-1 cells were grown in RPMI media supplemented with 10% FBS in T75 culture flask. Cells were fixed in Fixation Buffer and permeabilized using Intracellular Perm Wash Buffer. 1 μg anti-CHI3L1 antibodies (conjugated to Alexa-647) were incubated with 5 μg recombinant CHI3L1 or recombinant CHI3L2 for 15 minutes and then added to cells. After 15 minutes incubation, cells were then washed twice with Intracellular Perm Wash Buffer and analyzed on a BD LSRII flow cytometer.

For assay [1], the target named is T2, CHI3L2 expressed in human T cell leukemia cell line Jurkat (human, UniProt Q15782 27-390).
T2 construct: whole, on cells; Endogenous protein, detected by intracellular staining
T2 sequence (looked up): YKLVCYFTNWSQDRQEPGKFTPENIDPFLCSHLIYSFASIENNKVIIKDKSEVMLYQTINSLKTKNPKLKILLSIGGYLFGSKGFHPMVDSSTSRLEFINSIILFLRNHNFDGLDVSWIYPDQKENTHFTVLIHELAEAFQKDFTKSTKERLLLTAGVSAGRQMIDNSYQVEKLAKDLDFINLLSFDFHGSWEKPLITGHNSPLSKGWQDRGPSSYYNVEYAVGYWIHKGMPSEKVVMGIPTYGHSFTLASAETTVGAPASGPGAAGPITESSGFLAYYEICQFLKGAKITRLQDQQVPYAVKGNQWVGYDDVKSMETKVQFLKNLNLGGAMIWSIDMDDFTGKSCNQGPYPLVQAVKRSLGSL
Put plainly: flow cytometry on fixed/permeabilized CHI3L2-expressing Jurkat cells, Alexa-647 antibody. Here is the method: To asses for cross-reactivity with the closely related protein CHI3L2, certain anti-CHI3L1 antibody clones were assessed using CHI3L2 expressing human T cell leukemia cell line Jurkat. Jurkat cells were grown in RPMI media supplemented with 10% FBS in T75 culture flask. Cells were fixed in Fixation Buffer and permeabilized using Intracellular Perm Wash Buffer. 1 μg anti-CHI3L1 antibodies (conjugated to Alexa-647) were added and allowed to incubate for 15 minutes. Cells were then washed twice with Intracellular Perm Wash Buffer and analyzed on a BD LSRII flow cytometer.
For orientation: Flow cytometry measures light scatter and fluorescence of single cells or particles in a stream.

Assay [2] deals with T3, recombinant human CHI3L1 (human, UniProt P36222 22-383).
T3 construct: also called recombinant CHI3L1; CHI3L1 protein
The experiment in a line: flow cytometry blocking assay: 1 µg antibody pre-incubated with 5 µg recombinant CHI3L1, then added to THP-1 cells. As to the method:
as §1

Assay [3] deals with T4, CHI3L1 expressed in human cell lines (THP-1, U-87 MG) (human, UniProt P36222 22-383).
T4 construct: Endogenous CHI3L1 of human cell lines; It was detected inside fixed and permeabilized cells, not on the cell surface; In the ERK assay it is the CHI3L1 made by live U-87 MG cells; also called chitinase 3 like protein 1; YKL-40
The experiment in a line: flow cytometry, fixed/permeabilized CHI3L1-expressing THP-1 cells, 1 µg Alexa-647 antibody. Here is the method: In a first experiment, certain anti-CHI31L1 antibodies were assessed using CHI31L1 expressing human […] cell line THP-1. THP-1 cells were grown in RPMI media supplemented with 10% FBS in T75 culture flask. Cells were fixed in Fixation Buffer and permeabilized using Intracellular Perm Wash Buffer. 1 μg anti-CHI31L1 antibodies (conjugated to Alexa-647) were added and allowed to incubate for 15 minutes. Cells were then washed twice with Intracellular Perm Wash Buffer and analyzed on a BD LSRII flow cytometer.

In assay [4] the target is T3, recombinant human CHI3L1. Put plainly: bead-based sandwich immunoassay; biotinylated Clone B is the detection antibody, SAV-PE read-out. Here is the method: In this Example, Clone F was paired with Clone B in a bead-based sandwich immunoassay. The assay used Clone F as a capture antibody to capture the antigen (CHI3L1 protein) and then Clone B was used as a detection antibody. The Clone F capture antibody was conjugated on the beads and the Clone B detection antibody was biotinylated. After incubation of the Clone F conjugated beads with CHI3L1 and then detection Clone B, on the beads surface, a sandwich including capture Clone F-CHI3L1-detection Clone B formed. The unbound CHI3L1 protein was then washed off and then streptavidin conjugated to phycoerythrin (SAV-PE) was added, which binds the biotin on the detection Clone B. The final complex including beads-Clone F capture antibody-CHI3L1-Clone B-SAV-PE was acquired onto a flow cytometer and the PE signal on the beads was measured.

In assay [5] the target is T3, recombinant human CHI3L1. The experiment in a line: flow cytometry blocking assay on THP-1 cells (FIG. 5A legend). Here is the method:
as §1

T4 sequence (P36222 22-383 limits assumed): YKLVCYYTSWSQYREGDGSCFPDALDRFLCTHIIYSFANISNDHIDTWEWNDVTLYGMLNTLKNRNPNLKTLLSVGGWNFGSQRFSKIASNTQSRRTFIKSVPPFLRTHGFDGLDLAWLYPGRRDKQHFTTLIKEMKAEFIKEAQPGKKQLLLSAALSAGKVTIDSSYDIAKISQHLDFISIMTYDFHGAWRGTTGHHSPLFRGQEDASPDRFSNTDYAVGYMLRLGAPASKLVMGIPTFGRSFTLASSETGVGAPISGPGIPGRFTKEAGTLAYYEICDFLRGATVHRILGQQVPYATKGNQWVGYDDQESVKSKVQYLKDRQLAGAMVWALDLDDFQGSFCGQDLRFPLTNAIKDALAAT
T3 sequence (P36222 22-383 limits assumed): as above

B1: anti-human CHI3L1 (Clone F) (antibody, V domains shown)
VH: QVQLQQSGPELVRPGVSVKISCKGSGYTFTDYAMHWVKQSHAKSLEWIGVISTYSGHTNYNQKFKGKATMTVDKSSSTAYMELARLTSEDSAIYYCARGVYYKPEFDYWGQGTTLTVSS
VL: DIQMTQSSSSFSVSLGDRVTITCKASEDIYNRLAWYQQKPGNAPRLLIFGATSLETGVPSRFSGSGSGKDYTLSITSLQTEDVATYYCQQYSSTPPTFGGGTKLEIK
notes: Hybridoma monoclonal antibody; a mouse IgG1 kappa isotype control was used alongside it
For B1, the values for the binding result (with recombinant CHI3L2; in assay [1]) were “no binding” and “no binding (tested: 1 µg)”, respectively.

B2: anti-human CHI3L1 (Clone H) (antibody, V domains shown)
VH: QVQLQQSGPELVRPGVSVKISCKGSGYTFTHYAMHWVKQSHAKSLEWIGVISTYSGNTNYNQKFKGKATMTVDKSSSTAYMELARLTSEDSAIYYCARGVYYKPEFDYWGQGTTLTVSS
VL: DIQMTQSSSSFSVSLGDRVTITCKASEDIDNRLAWYQQKPGNAPRLLISGATSLETGVPSRFSGSGSGKDYTLSITSLQTEDVATYYCQQYWSTPPTFGGGTKLEIK
notes: Hybridoma monoclonal antibody; Conjugated to Alexa-647 for flow cytometry
With B2, the binding result is “binds” with recombinant human CHI3L1 [2], “no binding” with recombinant CHI3L2, “no binding (tested: 1 µg)” in assay [1] and “binds” in assay [3].

B3: Clone B (antibody, V domains shown)
VH: EVKLLESGGGLVQPGGSLKLSCAASGCDFSRYWMSWVRQAPGKGLEWIGEINPDSSTINYTPSLKDKFIISRDNAKNTLYLQMSKVRSEDTALYYCARPEDHFAMDYWGQGTSVTVSS
VL: DIQMTQSPASQSASLGESVTITCLASQTIGTWLAWYQQKPGKSPQLLIYAATSLADGVPSRFSGSGSGTKFSFKISSLQAEDFVSYYCQQLYSTPWTFGGGTKLEIK
notes: Hybridoma monoclonal antibody
B3: in the assay with recombinant human CHI3L1 [4], the binding result is reported as “binds”.

B4: Clone A (antibody, V domains shown)
VH: DVQLQESGPDLVKPSQSLSLTCTVTGYSITSGYSWHWIRQFPGNKLEWMGYIHYSGRTNYNPSLKSRISFTRDTSKNQFFLRLNSVTPEDTATYYCARNYGYDEFAYWGQGTLVTVSA
VL: QIVLTQSPAIMSASPGEKVTMTCSASSSVSYMHWYQQKSGTSPKRWIYDTSKLASGVPARFSGSGSGTSYSLTISSMEAEDAATYYCQQWSSNPPTFGSGTKLEIK
notes: as for B2
Regarding B4, the binding result in the assay with recombinant human CHI3L1 [5] is “binds”; with recombinant CHI3L2 it was “no binding”; in assay [1], “no binding (tested: 1 µg)”; in assay [3] it was “binds”.

B5: Clone E (antibody, V domains shown)
VH: DVQLQESGPDLVKPSQSLSLTCTVTGYSITSGYSWHWIRQFPGNKLEWMGYIHYSGTTNYNPSLKSRISITRDTSKNQFFLQLNSVTTEDTATYSCARNYGYDEFAYWGQGTLVTVSA
VL: QIVLTQSPAIMSASPGEKVTMTCSASSSVSYMHWYQQKSGTSPKRWIYDTSKLASGVPARFSGSGSGTSYSLTISSMEAEDAATYYCQQWSSNPPTFGSGTKLEIK
notes: as for B2
As for B5, the binding result in assay [3] is “binds”.
